The record followed here is publication PMC5539292, “Calcium Ion Induced Structural Changes Promote Dimerization of Secretagogin, Which Is Required for Its Insulin Secretory Function” (Scientific Reports, 2017).

Data set [1] addresses recombinant human secretagogin (hSCGN) wild type (human) (UniProt O76038). The data set can be described thus: SEC; 450 µg protein on Superdex 200 HR 10/30 in PBS, 0.5 mL/min; samples pretreated with EGTA and DTT, then treated with Ca^2+ and H2O2.
Data set [2] deals with the molecule itself. The data set can be described thus: non-reducing SDS-PAGE of disulfide-linked dimers; recombinant protein incubated with 0 or 2 mM CaCl2 at R.T. for 15 min, then H2O2 at 37°C for 1 h; Coomassie blue staining.

As for “recombinant human secretagogin (hSCGN) wild type (from UniProt O76038 1-276) (natural protein)”, the stoichiometry N in data set [1] was 2.

B1: purified hSCGN ΔEF1 (deletion of 1-52 a.a.) (domain or fragment, human, UniProt O76038 53-276, looked up)
chain: TVMKANLHKVKQQFMTTQDASKDGRIRMKELAGMFLSEDENFLLLFRRENPLDSSVEFMQIWRKYDADSSGFISAAELRNFLRDLFLHHKKAISEAKLEEYTGTMMKIFDRNKDGRLDLNDLARILALQENFLLQFKMDACSTEERKRDFEKIFAYYDVSKTGALEGPEVDGFVKDMMELVQPSISGVDLDKFREILLRHCDVNKDGKIQKSELALCLGLKINP
notes: human secretagogin (SCGN) without residues 1-52 (EF1); The methods describe ΔEF1 only as a pcDNA3.1 construct; also called ΔEF1 protein; recombinant ΔEF1; source: purified recombinant protein
For B1, in data set [2], the binding result is “binds”.
